Reference: the DeepSol protein solubility set

experiment: soluble on expression in E. coli; label from the status in PepcDB or PDB records

| Sequence | soluble on expression in E. coli |
| --- | --- |
| MSLIIKGALVWSGKEFVQKDLFVENGEFVEKSSEPVIDAKGYFLVPGFVDSHAHVVGTGFSKLSVQFNDWDELFERDLTSEVVVGRGWFEEPDGSVVERLDRIEAPVFLIRRCGHKAFLNKKAMEVLGVEERYLVENLEKIYEYVFKEKIAEFYRVGEEEFLKHGVTFVQSDDLYGVSVERLLSIIKHSRIRLFEKLKPKDLKPEHFGDLNKRVHVKGVKVFMDGSLGAKTALISGEYDDGTQGVQLLTEEKLEELARFCDEHDLILNVHAIGDSAVSLVLDVLERHRGHRIIHAQFVQEKDLQRVKNTTFSVQPHFFFEDQPLLKKVKVNALHYPFYRMFKAGVSISFSSDSPVSPCDPKYIAEHALKMGFSREETFYLMTEAGASQVGIKTGKIEAGYRADFCLYERNPLLFEDDPIAVFVEGEKIYEKNGSSHEGHHHHHH | soluble |
| MGSDKIHHHHHHMTGQMNILLANPRGFCAGVDRAISIVERALELFSPPIYVRHEVVHNRYVVQNLKDRGAIFVEELDQVPDNSIVIFSAHGVSQAVRAEAKKRGLKVFDATCPLVTKVHLQVTRASRKGVECILIGHEGHPEVEGTMGQYDNPEGGVYLIESVEDVEALQVKDPENLCFVTQTTLSVDDTLDIIAALQAKFPSIEGPRKDDICYATQNRQDAVRSLATQAKLFIVVGSKNSSNSNRLRELAEKSGAQAYLVDSAADVKAEWFANVDKVAVTAGASAPEVLVKQVIDAITHLAPSVVTEVEGRKEDVVFAVPVELR | not soluble |
| MNSDVIKGKWKQLTGKIKERWGDLTDDDLQAADGHAEYLVGKLQERYGWSKERAEQEVRDFSDRL | soluble |
| MGSDKIHHHHHHMKVSTISIDLAKNVFQLLGMDKHAKQVFSKRLNRTQLSEFMSQQPVCDVVFEACYSSHYWGRKFLAMGHNVKLIPAQHVTPFVRGSKNDKNDAMAIYEANFRPNIRFVPIKTEAQQEILMLHRVRERLVKQRTACTNQIRGVLVDFGICFPQGHSAFERAMWDIINDESQRPIIKLMANDFWDEYQTVSTRLDRINRLIKQLVEQDPNGKILLSIPGVGPIIASAFAAAIGAGQAFNSAKELAVWLGLTPQQFASGNKSINGSITKRGDGYLRKQLIHGARTVVSHASKKNDDLNQWITQLRNRKSICTTVVATAHRLARLMWILLHKQVPYAPQYGAYQGISHEAN | not soluble |
| MNYRELMQKKNVRPYVLMARFGLEKENQRSTREGLLATTEHPTVFGNRSYHPYIQTDFSETQLELITPVANSGTEMLRFLDAIHDVARRSIPEDEMLWPLSMPPQLPTKDEEIKIAKLDQYDAVLYRRYLAKEYGKRKQMVSGIHFNFEYDQALIQQLYDEQSEVTDCKQFKTKVYMKVARNFLRYRWLITYLFGASPVSEDRYFRVYDDQPQEPVRSIRNSTYGYRNHDNVKVSYASLERYLEDIHRMVENGLLSEEKEFYAPVRLRGGKQMSDLPKTGIRYIELRNLDLNPFSRLGIVEDTVDFLHYFMLYLLWTDEKEEADEWVKTGDIFNEQVALGHPHETIKLIAEGDRIFSEMIDMLDALGIRKGKEVVGKYYQQLRNPQDTVSGKMWTIIQENSNSELGNIFGNQYQSMAFERPYQLAGFREMELSTQIFLFDAIQKGLEIEILDEQEQFLKLQHGEHIEYVKNANMTSKDNYVVPLIMENKTVTKKILSAAGFHVPGGEEFSSFIEAQEAHLRYANKAFVVKPKSTNYGLGITIFKEGASLEDFTEALRIAFKEDTAVLIEEFLPGTEYRFFVLDNDVKAIMLRVPANVTGDGKHTVEELVAAKNSDPLRGTNHRAPLELIQLNDLEKLMLKEQGLTIYSVPEKEQIVYLRENSNVSTGGDSIDMTDVIDDSYKQIAIEAVAALGAKICGIDLIIPDKDVKGTRDSLTYGIIEANFNPAMHMHVYPYAGQGRRLTMDVLKLLYPEVVQ | not soluble |
| MRDLYPLTRRRLLTAMALSPLLWQMNTAQAAAIDPRRIVALEWLPVELLLALGITPYGVADVPNYKLWVSEPPLPDSVIDVGLRTEPNLELLTEMKPSFMVWSAGYGPSPEKLARIAPGRGFDFSDGKKPLAVARRSLVELAQTLNLEAAAEKHLAQYDRFIASQKPHFIRRGGRPLLMTTLIDPRHMLVLGPNCLFQEVLDEYGIVNAWQGETNFWGSTAVSIDRLAMYKEADVICFDHGNNTDMNALMATPLWQAMPFVRAGRFHRVPAVWFYGATLSTMHFVRILNNVLGGKA | not soluble |
| KRMYNREKLRKLFDKEETPEVTGLKDNQERFFTYSIRAAHMNINTKSNIKVLKNGEETFPDIFKAMRKAESYIHIEYYMFKSDMLGRGMMDIMMEKARQGVEVRFLYDAAGSMKLARRDIMRMKQAGVDIVPFSPLKYGFFNQKLNFRNHRKIVIIDGKTGFVGGLNVGKEYISRDPYIGFWRDTHLRLEGEIVQTLHAIFMLDWEYVSNEVLIDQEEYNTPVPVEGGGIYQIVATGPDMKESMSDLYYEMISSAQKSIWIATPYFVPNESIRTALKAAATKGVEVRVMVPEKNDSFLTQYASRSYFPELLLEGIEVYSYQKGFMHQKVMIIDGDLASVGTANMDMRSFQLNFEVNVFFTDAEAIRTLEAHFEEDMQESEKLSPVGFYKRGVADR | not soluble |
| MGHHHHHHSHMGEIESYCNKELGPLPTKAPTLSKNVLDLFSLKGKVASVTGSSGGIGWAVAEAYAQAGADVAIWYNSHPADEKAEHLQKTYGVHSKAYKCNISDPKSVEETISQQEKDFGTIDVFVANAGVTWTQGPEIDVDNYDSWNKIISVDLNGVYYCSHNIGKIFKKNGKGSLIITSSISGKIVNIPQLQAPYNTAKAACTHLAKSLAIEWAPFARVNTISPGYIDTDITDFASKDMKAKWWQLTPLGREGLTQELVGGYLYLASNASTFTTGSDVVIDGGYTCP | not soluble |
| IHFTTEVITSRIEPANRYVAEKLRITPGQDILYLERLRSIGDEKAMLIENRINIELCPGIVEIDFNQHNLFPTIESLSKRKIRYSESRYAARLIGNERGHFLDISEDAPVLHLEQLVFFSRELPVEFGNVWLKG | not soluble |
| MGSDKIHHHHHHMKYNPHKYQTYATNFILEHPIAAVFLEMGLGKSVITLTAIFDLCLDSFEIGKVLVIAPLRVARDTWPAEINKWEHLKGLEFSVAIGTKQERLAALRKPASVYLINRENVDWLVNKSGIPFDYDMVVIDELSSFKSYGAKRFKSLLKVRPRAKRIVGLTGTPSSNGLMDLWAEFRILDMGKRLGRYITHYRNSFFTPDKRNQQIVFSYKPLPGAEDAIYQLISDITISMESVDFLKMPECMINEVPVYLNDKEQSVYDRFREEMVLEFADEEIDAMNAAVLSGKLLQMANGAIYDDDKNTHIIHDRKLDALEDLIEGANGKPVLIAYWYNHDLERIKAKFNVREIKTSKDIKDWNNGDISVAVIHPASAGHGLNLQSGGSTLIWFGLTWSLELYQQTNARLWRQGQNETVVIHHIITKGTIDEDVMNALRRKEKTQSDLINAVKANLGKARDAV | not soluble |
| MGSDKIHHHHHHMFGLPGKKSSAVLGVDVSSSSVKLLELSKHGDRYKVESYAVEPLPANAVVEKNITDVEAVGEVLKRVASKSRTSVKQVAVAVSGSAVITKVIQMDGGLNEFEMEDQIALEADQYIPYPLDEVAIDFEVQGPSESNPDQVDVLLAACRKENVDIREDALEIAGLTTKIVDVEAYALERAYSLIEPQLDSQGEELVVAIVDIGATMTTLSVLAEGKTVYTREQIFGGKQLTEEIQRRYGLSLEEAGLAKKQGGLPDDYNEEVLTPFREAVVQQVARALQFFFGASQYNAVDYVVLAGGTASIQGLTEMVEEKTGTPTLVANPFANMAVGSRVNASALSNDAPSLMIACGLAMRSFD | not soluble |
| TSDTPALLYIHGLNSSAQSKKACQLIALMKSLGLADRLQVPELHHHPRQAMLQLESAIGALGRPLLVGSSLGGYYATHLAQRHGLKAVLINPAVNPHQLFDGFLGMQQNLYTGEQWQLTEDHIKALAELEVPAPQDPQQFQVWLQTGDETLDYRRAEKFYRACALRIQAGGDHSFQGFAERLPALLSFAGFAPDLLQ | not soluble |
| MNIQHNLNLIQQKIETACKEENRNQNTVKLLAVSKTKPISAILSAYQAGQTAFGENYVQEGVEKIQYFESQGINLEWHFIGPLQSNKTRLVAEHFDWMQTLDRAKIADRLNEQRPTNKAPLNVLIQINISDEESKSGIQPEEMLTLAKHIENLPHLCLRGLMAIPAPTDNIAEQENAFRKMLELFEQLKQVLPNQQIDTLSMGMTDDMPSAIKCGSTMVRIGTAIFGARNYSTSQNK | not soluble |
| LDDKTGLGTILNPQATYFDYQATQSGAGSFNYTVKGDNLTATSQIVLAVNAGETPGNNIPVADNITLSTFNNVDAIIDLSAYITDADGDTLRINKLVSASNRFTLNGFQVTFAPDGFVGVDQAVYSVDDGRGGYALAYIVVTSNDANPPAPNTAPVAKDDSLSMDVAKQSVLNINLSGLISDADGDSLKVVTLYSHNDRAVLKENASVDYTPGNFRGVDQFTYLVSDGKGGYDLGTVTVTVGDSTPPTPPTPSLVAYQQAFVLDVDQLQTIDVTQSVTSEHLDAWSLTTVQDSTNLGVVSAKTATTFNYLAQTPGVAQIDYSVQGGSLSANSTITVAINAPVTPDNHRPEAQDTQLETLNNASKTIDLQGKISDVDGDTLSITLHGSARFSLNGTQVTFTPNGFVGLDQAVYSVEDGKGGYALANIVAISEDANPPVPNMAPTANDAQFTLDVAKNVTFNIDLVAQRLIADADGDALSIAHIYTANNRATKQGATGITYTPGAFRGVDQFTYVITDGKDGYAINAITVVVNDSTPANKIPTAGPVTAKMLHNDPAITISVNSAVSDADGDTLKIVSISGALGQASINPANALEMLYEPKGFVGTDRFVYVVSDDNGGYAMGEVTVTVTDSNPTAPVANTVQENTLLDTPINIDLSAYISDKETETANLVISNVTNATSPAVATLSGQTVIYTPNGFTGNDILTYTVTDGRH | not soluble |
| RVMDMKAPIKVYMTKKLLGVKPSTSVQEASRLMMEFDVGSLVVINDDGNVVGFFTKSDIIRRVIVPGLPYDIPVERIMTRNLITANVNTPLGEVLRKMAEHRIKHILIEEEGKIVGIFTLSDLLEASRRRLETAISAE | soluble |
| MLNSRRIVVVLPAYNAEKTLEMTYAEIPFEHVDHVLLVDDASRDRTAQVAERLGIKTIVHDRNKGYGANQKTCYRAALDLGADIVIMVHPDYQYTPKLITAMAAMIAYGEFDAVLGSRILGIGALKGGMPLYKYVANRVLTLVENLLLSHKLSEYHTGYRAFSRQVLEQLPLDANGDDFVFDNQMLAQIIWHGYRIGELSCPTKYFEDASSINFRRSVIYGLGVLGTALEFRLARMGLIRSGRFTPRNDQAAAQLEHHHHHH | soluble |
| SETETKTLPLENASILSEGSLQEGHRLWIGNLDPKITEYHLLKLLQKFGKVKQFDFLFHKSGALEGQPRGYCFVNFETKQEAEQAIQCLNGKLALSKKLVVRWAHAQVKRYDHNKNDKILPISLEPSSSTEPAQSNLSVTAKIKAIEAKLKMMAENPDAEYPAAPVYSYFKPPDKKRTTPYSRTAWKSRR | soluble |
